In patent US20070020267A1 one finds Kd and IC50 data, which are given here for three substances.

Assay [1] has as its target T1, murine VEGF (mVEGF) (mouse) (UniProt Q00731).
T1 sequence (looked up): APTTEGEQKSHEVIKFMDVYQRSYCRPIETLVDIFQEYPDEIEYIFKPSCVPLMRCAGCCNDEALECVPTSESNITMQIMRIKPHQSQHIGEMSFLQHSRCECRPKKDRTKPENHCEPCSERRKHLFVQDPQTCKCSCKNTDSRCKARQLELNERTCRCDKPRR
In words: BIAcore or solution binding ELISA, control Fab.

Assay [2] has as its target hVEGF (human) (UniProt P15692). In words: SPR; 37 C. To be noted: Fab.
Assay [3] has as its target hVEGF (human) (UniProt P15692). In words: SPR; 25 C. The conditions noted are these: Fab.
Assay [4] has as its target hVEGF (human) (UniProt P15692). Description: competition; 25 C. To be noted: Fab.
The target in assay [5] is hVEGF (human) (UniProt P15692). In words: SPR. The conditions noted are these: Fab.
A further assay addresses mVEGF (mouse) (UniProt Q00731). In words: competition; 25 C. To be noted: Fab.

Chain of Y0317 Fab (VH): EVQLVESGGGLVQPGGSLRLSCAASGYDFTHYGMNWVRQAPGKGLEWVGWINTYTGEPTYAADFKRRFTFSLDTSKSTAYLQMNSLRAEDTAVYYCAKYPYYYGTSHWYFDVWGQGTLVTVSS
Chain of Y0317 Fab (VL): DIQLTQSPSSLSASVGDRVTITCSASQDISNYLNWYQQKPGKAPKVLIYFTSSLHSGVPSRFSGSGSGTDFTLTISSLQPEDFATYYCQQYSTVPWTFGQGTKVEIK

Turning to Y0317 Fab, in assay [1], the Kd came to 350 nM. This lies in the sub-micromolar range.

Regarding Avastin, the Kd with hVEGF (human) [2] came to 12.9 nM; with hVEGF (human) [3], 2.9 nM; with hVEGF (human) [5] it was 2.9 nM. Further, the IC50 with hVEGF (human) [4] is 1.1 nM.

For Y0317, the Kd turned out to be 0.11 nM with hVEGF (human) [2] and 0.2 nM in the assay with hVEGF (human) [3]. Further, the IC50 in the assay with mVEGF (mouse) came to 300 nM; with hVEGF (human) [4], 0.02 nM.

The Kd is the free concentration of one partner at which half of the binding sites on the other are occupied at equilibrium, for simple one-to-one binding. A higher Kd goes with a looser complex. As usually defined, the IC50 is the concentration that gives 50% inhibition.
